Experimental findings from US20090192084A1 are described below.

In assay [1] the target is p97-Myc. In words: p97-Myc co-IP, 293 cells, MudPIT MS.
The target in assay [2] is T1, VCIP135 (human) (UniProt Q96JH7).
T1 sequence (looked up): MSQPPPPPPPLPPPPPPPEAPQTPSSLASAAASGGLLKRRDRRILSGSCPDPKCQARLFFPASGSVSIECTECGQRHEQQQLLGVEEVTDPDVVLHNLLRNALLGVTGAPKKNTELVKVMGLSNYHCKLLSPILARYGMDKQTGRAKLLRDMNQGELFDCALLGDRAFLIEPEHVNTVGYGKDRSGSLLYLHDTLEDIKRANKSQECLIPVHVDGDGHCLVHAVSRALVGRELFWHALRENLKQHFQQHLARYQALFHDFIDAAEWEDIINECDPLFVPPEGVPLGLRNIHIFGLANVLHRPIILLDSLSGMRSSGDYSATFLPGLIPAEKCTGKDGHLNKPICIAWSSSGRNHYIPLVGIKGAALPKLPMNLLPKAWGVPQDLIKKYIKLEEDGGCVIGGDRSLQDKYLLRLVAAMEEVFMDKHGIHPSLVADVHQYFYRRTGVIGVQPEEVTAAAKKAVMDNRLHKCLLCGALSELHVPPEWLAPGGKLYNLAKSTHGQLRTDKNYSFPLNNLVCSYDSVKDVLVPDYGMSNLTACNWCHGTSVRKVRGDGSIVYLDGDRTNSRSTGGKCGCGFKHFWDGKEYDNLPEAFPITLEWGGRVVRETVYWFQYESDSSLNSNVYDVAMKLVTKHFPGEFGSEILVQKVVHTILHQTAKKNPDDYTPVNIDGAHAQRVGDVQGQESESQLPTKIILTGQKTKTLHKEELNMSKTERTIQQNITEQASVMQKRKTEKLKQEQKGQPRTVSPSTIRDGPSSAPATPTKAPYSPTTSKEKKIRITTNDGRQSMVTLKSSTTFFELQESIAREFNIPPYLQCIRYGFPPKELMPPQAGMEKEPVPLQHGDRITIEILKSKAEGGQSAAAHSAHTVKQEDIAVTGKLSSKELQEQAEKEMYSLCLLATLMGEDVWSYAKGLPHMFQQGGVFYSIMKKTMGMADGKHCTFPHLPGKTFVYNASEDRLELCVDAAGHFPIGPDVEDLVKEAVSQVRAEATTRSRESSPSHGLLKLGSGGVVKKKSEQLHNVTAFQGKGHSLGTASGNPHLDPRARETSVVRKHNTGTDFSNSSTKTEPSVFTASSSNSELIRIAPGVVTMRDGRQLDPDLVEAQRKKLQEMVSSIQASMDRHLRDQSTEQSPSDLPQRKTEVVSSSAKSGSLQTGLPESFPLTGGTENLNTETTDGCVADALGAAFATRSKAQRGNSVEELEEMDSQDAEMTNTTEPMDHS
In words: Flag co-IP, 293 cells, MudPIT MS.

The target in assay [3] is Cullin 2 (human) (UniProt Q13617). In words: Flag co-IP, MudPIT MS, DMSO.
Cullin 2 (human), sequence (Q13617 whole entry): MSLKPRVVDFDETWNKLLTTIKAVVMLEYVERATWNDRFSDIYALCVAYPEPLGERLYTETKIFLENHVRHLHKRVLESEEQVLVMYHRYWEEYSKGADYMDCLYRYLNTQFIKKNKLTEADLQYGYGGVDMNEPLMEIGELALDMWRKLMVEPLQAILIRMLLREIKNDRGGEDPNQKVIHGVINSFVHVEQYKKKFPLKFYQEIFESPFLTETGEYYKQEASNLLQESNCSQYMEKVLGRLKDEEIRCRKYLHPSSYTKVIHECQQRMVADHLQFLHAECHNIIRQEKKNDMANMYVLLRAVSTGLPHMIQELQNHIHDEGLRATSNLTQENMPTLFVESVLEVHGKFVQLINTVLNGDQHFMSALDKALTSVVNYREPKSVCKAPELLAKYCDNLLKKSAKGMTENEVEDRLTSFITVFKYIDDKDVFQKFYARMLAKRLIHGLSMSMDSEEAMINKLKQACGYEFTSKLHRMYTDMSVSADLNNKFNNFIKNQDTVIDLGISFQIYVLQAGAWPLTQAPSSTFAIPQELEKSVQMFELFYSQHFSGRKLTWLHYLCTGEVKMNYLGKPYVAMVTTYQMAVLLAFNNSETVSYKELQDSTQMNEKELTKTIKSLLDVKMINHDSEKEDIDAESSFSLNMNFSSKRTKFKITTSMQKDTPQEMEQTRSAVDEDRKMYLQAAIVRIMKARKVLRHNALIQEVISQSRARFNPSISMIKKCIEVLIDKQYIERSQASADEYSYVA
For assay [4] the target is unchanged. In words: Flag co-IP, MudPIT MS, MG132.

p97-Myc, sequence (Q01853 2-806): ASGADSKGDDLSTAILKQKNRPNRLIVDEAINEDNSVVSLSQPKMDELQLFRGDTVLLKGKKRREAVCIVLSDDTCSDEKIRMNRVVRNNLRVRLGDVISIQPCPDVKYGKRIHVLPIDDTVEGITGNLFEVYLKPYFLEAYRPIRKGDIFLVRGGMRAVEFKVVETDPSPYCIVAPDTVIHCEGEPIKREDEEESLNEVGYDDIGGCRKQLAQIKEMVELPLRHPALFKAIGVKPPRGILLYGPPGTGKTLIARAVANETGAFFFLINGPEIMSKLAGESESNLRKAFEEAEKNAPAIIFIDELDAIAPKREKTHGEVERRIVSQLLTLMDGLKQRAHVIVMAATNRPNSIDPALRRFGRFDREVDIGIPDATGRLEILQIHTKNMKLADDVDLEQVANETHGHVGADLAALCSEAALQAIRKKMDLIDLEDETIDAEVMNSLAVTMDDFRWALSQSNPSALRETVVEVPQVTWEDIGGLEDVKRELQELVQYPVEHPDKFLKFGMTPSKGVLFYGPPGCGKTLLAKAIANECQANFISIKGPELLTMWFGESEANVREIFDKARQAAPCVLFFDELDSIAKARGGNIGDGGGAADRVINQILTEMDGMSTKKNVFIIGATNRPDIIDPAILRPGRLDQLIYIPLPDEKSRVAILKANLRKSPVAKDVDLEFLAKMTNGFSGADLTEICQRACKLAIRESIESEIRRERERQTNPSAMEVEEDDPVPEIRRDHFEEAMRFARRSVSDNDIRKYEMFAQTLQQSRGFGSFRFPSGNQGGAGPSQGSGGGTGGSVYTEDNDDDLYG

B1: endogenous UBXD8 (protein, human, UniProt Q96CS3 2-445, looked up)
chain: AAPEERDLTQEQTEKLLQFQDLTGIESMDQCRHTLEQHNWNIEAAVQDRLNEQEGVPSVFNPPPSRPLQVNTADHRIYSYVVSRPQPRGLLGWGYYLIMLPFRFTYYTILDIFRFALRFIRPDPRSRVTDPVGDIVSFMHSFEEKYGRAHPVFYQGTYSQALNDAKRELRFLLVYLHGDDHQDSDEFCRNTLCAPEVISLINTRMLFWACSTNKPEGYRVSQALRENTYPFLAMIMLKDRRMTVVGRLEGLIQPDDLINQLTFIMDANQTYLVSERLEREERNQTQVLRQQQDEAYLASLRADQEKERKKREERERKRRKEEEVQQQKLAEERRRQNLQEEKERKLECLPPEPSPDDPESVKIIFKLPNDSRVERRFHFSQSLTVIHDFLFSLKESPEKFQIEANFPRRVLPCIPSEEWPNPPTLQEAGLSHTEVLFVQDLTDE
In assay [1], B1 yielded a sequence count of 11, a sequence coverage of 33.7% and a spectrum count of 12.

B2: endogenous SAKS1 (protein, human, UniProt Q04323 2-297, looked up)
chain: AELTALESLIEMGFPRGRAEKALALTGNQGIEAAMDWLMEHEDDPDVDEPLETPLGHILGREPTSSEQGGLEGSGSAAGEGKPALSEEERQEQTKRMLELVAQKQREREEREEREALERERQRRRQGQELSAARQRLQEDEMRRAAEERRREKAEELAARQRVREKIERDKAERAKKYGGSVGSQPPPVAPEPGPVPSSPSQEPPTKREYDQCRIQVRLPDGTSLTQTFRAREQLAAVRLYVELHRGEELGGGQDPVQLLSGFPRRAFSEADMERPLQELGLVPSAVLIVAKKCPS
In assay [1], B2 returned a sequence count of 2, a sequence coverage of 19.5% and a spectrum count of 2.

B3: Flag-p47 (protein, UniProt O35987 1-370, looked up, not shown: small tags and cut ends)
chain: MAEERQDALREFVAVTGAEEDRARFFLESAGWDLQIALASFYEDGGDEDIVTISQATPSSVSRGTAPSDNRVTSFRDLIHDQDEEEEEEEGQRFYAGGSERSGQQIVGPPRKKSPNELVDDLFKGAKEHGAVAVERVTKSPGETSKPRPFAGGGYRLGAAPEEESAYVAGERRRHSGQDVHVVLKLWKTGFSLDNGDLRSYQDPSNAQFLESIRRGEVPAELRRLAHGGQVNLDMEDHRDEDFVKPKGAFKAFTGEGQKLGSTAPQVLNTSSPAQQAENEAKASSSILINEAEPTTNIQIRLADGGRLVQKFNHSHRISDIRLFIVDARPAMAATSFVLMTTFPNKELADENQTLKEANLLNAVIVQRLT
On to B3, for which, in assay [2], the sequence count was 14, the sequence coverage stood at 17.6% and the spectrum count is 15.

B4: endogenous UBXD4 (protein, human, UniProt P68543 1-259, looked up)
chain: MKDVDNLKSIKEEWVCETGSDNQPLGNNQQSNCEYFVDSLFEEAQKVSSKCVSPAEQKKQVDVNIKLWKNGFTVNDDFRSYSDGASQQFLNSIKKGELPSELQGIFDKEEVDVKVEDKKNEICLSTKPVFQPFSGQGHRLGSATPKIVSKAKNIEVENKNNLSAVPLNNLEPITNIQIWLANGKRIVQKFNITHRVSHIKDFIEKYQGSQRSPPFSLATALPVLRLLDETLTLEEADLQNAVIIQRLQKTASFRELSEH
In the case of B4, in assay [1], the sequence count was determined as 4, the sequence coverage came to 19.3% and the spectrum count came out at 5.

B5: Flag-UBXD8 (protein, UniProt Q96CS3 1-445, looked up, not shown: small tags and cut ends)
chain: MAAPEERDLTQEQTEKLLQFQDLTGIESMDQCRHTLEQHNWNIEAAVQDRLNEQEGVPSVFNPPPSRPLQVNTADHRIYSYVVSRPQPRGLLGWGYYLIMLPFRFTYYTILDIFRFALRFIRPDPRSRVTDPVGDIVSFMHSFEEKYGRAHPVFYQGTYSQALNDAKRELRFLLVYLHGDDHQDSDEFCRNTLCAPEVISLINTRMLFWACSTNKPEGYRVSQALRENTYPFLAMIMLKDRRMTVVGRLEGLIQPDDLINQLTFIMDANQTYLVSERLEREERNQTQVLRQQQDEAYLASLRADQEKERKKREERERKRRKEEEVQQQKLAEERRRQNLQEEKERKLECLPPEPSPDDPESVKIIFKLPNDSRVERRFHFSQSLTVIHDFLFSLKESPEKFQIEANFPRRVLPCIPSEEWPNPPTLQEAGLSHTEVLFVQDLTDE
In assay [3], B5 showed an abundance factor (AF) of 2.4, a sequence count of 4 and a spectrum count of 12. For the same molecule, in assay [4], the abundance factor (AF) came out at 10.3, the sequence count was 8 and the spectrum count is 38.

B6: endogenous p37 (protein, human, UniProt Q14CS0 2-331, looked up)
chain: AEGGGPEPGEQERRSSGPRPPSARDLQLALAELYEDEVKCKSSKSNRPKATVFKSPRTPPQRFYSSEHEYSGLNIVRPSTGKIVNELFKEAREHGAVPLNEATRASGDDKSKSFTGGGYRLGSSFCKRSEYIYGENQLQDVQILLKLWSNGFSLDDGELRPYNEPTNAQFLESVKRGEIPLELQRLVHGGQVNLDMEDHQDQEYIKPRLRFKAFSGEGQKLGSLTPEIVSTPSSPEEEDKSILNAVVLIDDSVPTTKIQIRLADGSRLIQRFNSTHRILDVRNFIVQSRPEFAALDFILVTSFPNKELTDESLTLLEADILNTVLLQQLK
In the case of B6, in assay [1], the sequence count turned out to be 6, the sequence coverage was found to be 32.3% and the spectrum count turned out to be 7.

B7: Flag-SAKS1 (protein, UniProt Q04323 1-297, looked up, not shown: small tags and cut ends)
chain: MAELTALESLIEMGFPRGRAEKALALTGNQGIEAAMDWLMEHEDDPDVDEPLETPLGHILGREPTSSEQGGLEGSGSAAGEGKPALSEEERQEQTKRMLELVAQKQREREEREEREALERERQRRRQGQELSAARQRLQEDEMRRAAEERRREKAEELAARQRVREKIERDKAERAKKYGGSVGSQPPPVAPEPGPVPSSPSQEPPTKREYDQCRIQVRLPDGTSLTQTFRAREQLAAVRLYVELHRGEELGGGQDPVQLLSGFPRRAFSEADMERPLQELGLVPSAVLIVAKKCPS
Take B7: in assay [3], the abundance factor (AF) amounted to 3.7, the sequence count amounted to 3 and the spectrum count turned out to be 4. In assay [4], this molecule registered an abundance factor (AF) of 5.5, a sequence count of 4 and a spectrum count of 11.

B8: endogenous p47 (protein, human, UniProt Q9UNZ2 1-370, looked up)
chain: MAAERQEALREFVAVTGAEEDRARFFLESAGWDLQIALASFYEDGGDEDIVTISQATPSSVSRGTAPSDNRVTSFRDLIHDQDEDEEEEEGQRFYAGGSERSGQQIVGPPRKKSPNELVDDLFKGAKEHGAVAVERVTKSPGETSKPRPFAGGGYRLGAAPEEESAYVAGEKRQHSSQDVHVVLKLWKSGFSLDNGELRSYQDPSNAQFLESIRRGEVPAELRRLAHGGQVNLDMEDHRDEDFVKPKGAFKAFTGEGQKLGSTAPQVLSTSSPAQQAENEAKASSSILIDESEPTTNIQIRLADGGRLVQKFNHSHRISDIRLFIVDARPAMAATSFILMTTFPNKELADESQTLKEANLLNAVIVQRLT
As to B8, in assay [1], the sequence count stood at 19, the sequence coverage is 52.2% and the spectrum count is 153.
